From US20160320391A1 (Genentech, published 2016)

T1: purified recombinant soluble hamster (Cricetulus griseus) phospholipase B-like 2 (PLBL2), his-tagged (hamster (Cricetulus griseus))
T1 construct: Transiently expressed in CHO-K1 cells and purified from the supernatant; In the rabbit serum assay the protein was biotinylated; also called PLB2; PLBD2; not shown: histidine (his) tag added
T1 chain: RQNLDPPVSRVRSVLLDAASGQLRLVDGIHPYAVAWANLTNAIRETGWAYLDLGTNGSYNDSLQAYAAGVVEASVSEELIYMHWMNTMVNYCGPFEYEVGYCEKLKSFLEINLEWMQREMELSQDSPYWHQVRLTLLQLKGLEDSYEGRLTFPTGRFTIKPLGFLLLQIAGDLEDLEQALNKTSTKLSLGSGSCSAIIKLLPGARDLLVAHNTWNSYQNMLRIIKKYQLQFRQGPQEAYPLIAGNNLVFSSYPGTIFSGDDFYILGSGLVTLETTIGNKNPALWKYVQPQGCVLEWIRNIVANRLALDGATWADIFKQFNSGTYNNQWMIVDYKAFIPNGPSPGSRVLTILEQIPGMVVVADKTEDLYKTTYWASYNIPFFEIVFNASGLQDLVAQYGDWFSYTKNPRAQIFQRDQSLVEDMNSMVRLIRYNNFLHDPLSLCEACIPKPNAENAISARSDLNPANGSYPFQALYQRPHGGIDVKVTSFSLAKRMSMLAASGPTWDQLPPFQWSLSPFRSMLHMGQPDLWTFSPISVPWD

B1: 19C10 (recombinant murine monoclonal anti-hamster PLBL2 antibody) (antibody, mouse IgG1, kappa, V domains shown)
VH: EVQLQESGPCLVKPSQTLSLTCSVTGDSITSGYWNWIRKFPGNKLESMGYISYSGSTYYNPSLKSRISITRDTSKNQYYLQLNSVTTEDTATYYCARIASWITTYFDYWGQGTTLTVSS
VL: DIVMTQSPAILSVSPGERVSFSCRASQSIGTSIHWYQQRRNGSPRLLIKYASESISGIPSRFSGSGSGTDFILSINSVESEDIADYYCQQSNSWPYTFGGGTKLELKR
notes: Mouse IgG1, kappa, expressed transiently in 293 or CHO cells; also called capture antibody; coat antibody
B2: 15G11 anti-PLBL2 murine monoclonal antibody conjugated to biotin (antibody, mouse IgG1, kappa, V domains shown)
VH: EVKLEESGGGLVQPGGSTKLSCAASGFTFSDAWMDWVRQCPEKGLEWVAEISSKANNRATYYAESVKGRFTISRDDSKSCVYLQMNSLRAEDTGIYYCTRRGYTMDYWGQGTSVTVSS
VL: DIVMTQSQKFMSTSVGDRVSVTCKASQNVDTNVAWYQQKPGQSPKALIFSASYRFSGVPDRFTGSGSGTDFTLTISNVQSEDLAEYFCQQYNNFPFTFGSGTKLELKR
modifications: biotin conjugated with E-Z Link NHS-Biotin; sites not stated
notes: Mouse IgG1, kappa, biotinylated; Used as the detection antibody of the monoclonal PLBL2 ELISA; also called biotinylated 15G11; detection antibody

Assays:
[1] = target: T1, purified recombinant soluble hamster …; test: sandwich ELISA, 19C10 coated as capture antibody, PLBL2 standard titrated, detection with biotinylated 15G11 and streptavidin-HRP, OD 450 nm; the value describes the whole sandwich
Procedure: (§1) An ELISA assay to detect and quantify the CHOP impurity, PLBL2, in recombinant polypeptide samples, such as recombinant antibody or immunoadhesin preparations, was developed. The procedure is as follows. Murine monoclonal antibody 19C10 was coated onto a half area 96-well microtiter plate at a concentration of 0.5 μg/mL in carbonate buffer (0.05M sodium carbonate, pH 9.6), overnight at 2-8° C. After coating, the plate was blocked with Blocking Buffer (0.15M NaCl, 0.1M sodium phosphate, 0.1% fish gelatin, 0.05% polysorbate 20, 0.05% Proclin® 300 [Sigma-Aldrich]; also referred to as Assay Diluent) to prevent non-specific sticking of proteins. […]
(§2) After a 2 hr. incubation step with biotinylated 15G11 at room temperature, Streptavidin HRP (1:200,000 dilution in Assay Diluent) was added to the microtiter plate wells. After a final wash step with Wash Buffer (described above), color was developed (for PLBL2 quantification) by adding a solution of TMB (50 μl/well) (SUREBLUE RESERVE™ from KPL, Kirkegaard & Perry Laboratories, Inc., Gaithersburg, Md., cat no. 53-00-03) followed by incubation at room temperature for 10-20 minutes. […]

[2] = target: T1, purified recombinant soluble hamster …; test: sandwich ELISA, biotinylated 15G11 as detection antibody on PLBL2 standard captured by coated 19C10, streptavidin-HRP, OD 450 nm; the value describes the whole sandwich
Procedure: as §1, §2

Binder | EC50 (read off the curve) [1] [ng/mL] | EC50 (read off the curve) [2] [ng/mL]
B1 | ~10 | 
B2 |  | ~10
